From article PMC6599047, “Optimal composition and position of histidine-containing tags improves biodistribution of ^99mTc-labeled DARPin G3” (Scientific Reports, 2019)
Changes are numbered by the printed parent chain.

B1: [99mTc]Tc(CO)3-H6-G3 (DARPin G3 with a hexahistidine tag at the N-terminus) (designed binder)
chain: MRGSHHHHHHGSDLGKKLLEAARAGQDDEVRILMANGADVNAKDEYGLTPLYLATAHGHLEIVEVLLKNGADVNAVDAIGFTPLHLAAFIGHLEIAEVLLKHGADVNAQDKFGKTAFDISIGNGNEDLAEILQKLN
modifications: [99mTc]Tc(CO)3 on the histidine-containing tag (site-specific radiolabel)
notes: whole chain as printed; source: E. coli BL21(DE3), purified (HisTrap HP, MonoQ); not shown: His6, N-terminal, kept
B2: [99mTc]Tc(CO)3-(HE)3-G3 (DARPin G3 with a HEHEHE tag at the N-terminus) (designed binder)
chain: B1 chain with H6E, H8E, H10E
modifications: [99mTc]Tc(CO)3 on the histidine-containing tag (site-specific radiolabel)
notes: whole chain as printed; source: E. coli BL21(DE3), purified (HisTrap HP without imidazole in lysate and wash, MonoQ); not shown: (HE)3 (HEHEHE), N-terminal, kept
B3: [99mTc]Tc(CO)3-G3-H6 (DARPin G3 with a hexahistidine tag at the C-terminus) (designed binder)
chain: MDLGKKLLEAARAGQDDEVRILMANGADVNAKDEYGLTPLYLATAHGHLEIVEVLLKNGADVNAVDAIGFTPLHLAAFIGHLEIAEVLLKHGADVNAQDKFGKTAFDISIGNGNEDLAEILQKLNGSHHHHHH
modifications: [99mTc]Tc(CO)3 on the histidine-containing tag (site-specific radiolabel)
notes: whole chain as printed; source: E. coli BL21(DE3), purified (HisTrap HP, MonoQ); not shown: His6, C-terminal, kept
B4: [99mTc]Tc(CO)3-G3-(HE)3 (DARPin G3 with a HEHEHE tag at the C-terminus) (designed binder)
chain: DLGKKLLEAARAGQDDEVRILMANGADVNAKDEYGLTPLYLATAHGHLEIVEVLLKNGADVNAVDAIGFTPLHLAAFIGHLEIAEVLLKHGADVNAQDKFGKTAFDISIGNGNEDLAEILQKLNGSHEHEHE
modifications: [99mTc]Tc(CO)3 on the histidine-containing tag (site-specific radiolabel)
notes: whole chain as printed (after removal of SUMO at QIGG/DLGKK); source: E. coli BL21(DE3), made as a His6-SUMO fusion, purified (HisTrap HP, cut with ULP1, HisTrap flow-through, MonoQ); not shown: (HE)3 (HEHEHE), C-terminal, kept

Target: T1, human epidermal growth factor receptor (HER2) (human (endogenous in SKOV3, BT474, …, UniProt P04626 23-1255))
T1 construct: HER2, endogenous on the human cancer cell lines SKOV3, BT474 (high expression) and DU145 (low expression); source: endogenous, on living SKOV3, BT474 and DU145 cells
Experiment: radioligand binding; LigandTracer, real time, living SKOV3 cells, room temperature; 0.5 and 2 nM radiolabeled G3 variant, then medium replaced for dissociation; fitted to a one-to-two Langmuir binding model (TraceDrawer); duplicates
Conditions: one partner purified

Row | KD1 (high affinity interaction of the one-to-two fit) [pM] | KD2 (low affinity interaction of the one-to-two fit) [nM] | Binder
1 | 90 ± 5 | 3.3 ± 0.2 | B1
2 | 96 ± 3 | 1.2 ± 0.1 | B2
3 | 118 ± 38 | 2.5 ± 1.5 | B3
4 | 89 ± 11 | 1.8 ± 0.5 | B4
